Experimental data reported in patent US20250109212A1 (BIOSION, published 2025).

B1: BSI038×S-004 (bispecific antibody, human IgG2, kappa)
heavy: EEELQVIQPDKSVSVAAGESAILHCTITSLIPVGPIQWFRGAGPARELIYNQREGHFPRVTTVSETTKRENMDFSISISNITPADAGTYYCVKFRKGSPDTEFKSGAGTELSVRAKPSAPVVSGPAARATPGGGGSGGGGSEVQLVESGGGLVKPGGSLRLSCAASGFTFSNYGISWVRQAPGKGLEWVSSISSGGDNTYYPDNVKGRFTISRDNAKNSLYLQMNSLRAEDTAVYYCARAGEKAMDYWGQGTLVTVSSASTKGPSVFPLAPCSRSTSESTAALGCLVKDYFPEPVTVSWNSGALTSGVHTFPAVLQSSGLYSLSSVVTVPSSNFGTQTYTCNVDHKPSNTKVDKTVERKCCVECPPCPAPPVAGPSVFLFPPKPKDTLMISRTPEVTCVVVDVSHEDPEVQFNWYVDGVEVHNAKTKPREEQFNSTFRVVSVLTVVHQDWLNGKEYKCKVSNKGLPAPIEKTISKTKGQPREPQVYTLPPSREEMTKNQVSLTCLVKGFYPSDIAVEWESNGQPENNYKTTPPMLDSDGSFFLYSKLTVDKSRWQQGNVFSCSVMHEALHNHYTQKSLSLSPGK
light: EIVLTQSPATLSLSPGERATLSCRASQTINNNLHWYQQKPGQAPRLLIKYASQSISGIPARFSGSGSGTDFTLTISSLEPEDFAVYFCQQFSSWPLTFGGGTKVEIKRTVAAPSVFIFPPSDEQLKSGTASVVCLLNNFYPREAKVQWKVDNALQSGNSQESVTEQDSKDSTYSLSSTLTLSKADYEKHKVYACEVTHQGLSSPVTKSFNRGEC
notes: SIRPαV2D1 variant M1 linked to N-terminus of each heavy chain of HuCD40-C1H1-V2 (human IgG2)
B2: BSI038×S-005 (bispecific antibody, human IgG2, kappa)
heavy: EEELQVIQPDKSVSVAAGESAILHCTITSLIPVGPIQWFRGAGPARELIYNQREGHFPRVTTVSETTRRENMDFSISISNITPADAGTYYCVKFRKGSPDTEVKSGAGTELSVRAKPSAPVVSGPAARATPGGGGSGGGGSEVQLVESGGGLVKPGGSLRLSCAASGFTFSNYGISWVRQAPGKGLEWVSSISSGGDNTYYPDNVKGRFTISRDNAKNSLYLQMNSLRAEDTAVYYCARAGEKAMDYWGQGTLVTVSSASTKGPSVFPLAPCSRSTSESTAALGCLVKDYFPEPVTVSWNSGALTSGVHTFPAVLQSSGLYSLSSVVTVPSSNFGTQTYTCNVDHKPSNTKVDKTVERKCCVECPPCPAPPVAGPSVFLFPPKPKDTLMISRTPEVTCVVVDVSHEDPEVQFNWYVDGVEVHNAKTKPREEQFNSTFRVVSVLTVVHQDWLNGKEYKCKVSNKGLPAPIEKTISKTKGQPREPQVYTLPPSREEMTKNQVSLTCLVKGFYPSDIAVEWESNGQPENNYKTTPPMLDSDGSFFLYSKLTVDKSRWQQGNVFSCSVMHEALHNHYTQKSLSLSPGK
light: EIVLTQSPATLSLSPGERATLSCRASQTINNNLHWYQQKPGQAPRLLIKYASQSISGIPARFSGSGSGTDFTLTISSLEPEDFAVYFCQQFSSWPLTFGGGTKVEIKRTVAAPSVFIFPPSDEQLKSGTASVVCLLNNFYPREAKVQWKVDNALQSGNSQESVTEQDSKDSTYSLSSTLTLSKADYEKHKVYACEVTHQGLSSPVTKSFNRGEC
notes: SIRPαV2D1 variant M2 linked to N-terminus of each heavy chain of HuCD40-C1H1-V2 (human IgG2)

Experiments:
[1] = target: human CD40-Fc protein (Cat #: CD0-H5253, ACRO Biosystems) (human, UniProt P25942 21-193); experiment: dual-binding ELISA: human CD40-Fc coated, binder titrated, detected with human CD47-his and anti-His-HRP, OD450
Method: The binding activity of the recombinant fusion proteins to human CD40 and CD47 was also tested by dual-binding ELISA assay. Briefly, 100 μl/well human CD40-Fc proteins (Cat #: CD0-H5253, ACRO Biosystems) were coated on 96-well plates at 0.2 μg/mL in PBS and incubated overnight at 2-8° C. The next day, the plates were washed 3 times using wash buffer (PBS+0.05% v/v Tween-20, PBST), and then blocked with block buffer (PBS+1% w/v BSA) for 3 hours at 37° C. The plates were then washed 3 times using the wash buffer.
Serially diluted recombinant fusion proteins of the disclosure or controls (starting at 100 nM with a 6-fold serial dilution) in block buffer were added to the CD40-Fc bound plates, 100 μL per well, and incubated at 37° C. for 1 hour. The plates were washed 3 times using wash buffer, and then added and incubated for 1 hour at 37° C. with 100 μl/well 3 μg/mL human CD47-his protein (Cat #: CD7-H5227, ACRO Biosystems). The plates were washed again using wash buffer, added with 100 μl/well Anti-His tag Antibody (HRP) (1:2000 dilution in block buffer, Cat #: 105327-MM02T-H, Sino Biological) and incubated for 1 hour at 37° C. The plates were washed again using wash buffer. […] The absorbance was read using a microplate reader set to 450 nm, then the OD (450) values were plotted against the recombinant fusion protein or controls concentration. Data was analyzed using Graphpad Prism and EC₅₀ values were reported.

[2] = target: T1, biotin-labeled human CD47-Fc (Biosion in house made) (human, biotin-labeled (sites not given)); experiment: competitive ELISA: binder premixed with biotin-labeled human CD47-Fc, blocked partner coated human CD172a-Fc, OD(450-630)
T1 construct: also called Human CD47-Fc protein
Method: The ability of the recombinant fusion proteins of the disclosure to block CD47-CD172a binding was measured in a competitive ELISA assay. Briefly, 100 μl/well human CD172a-Fc proteins (prepared in-house with amino acid sequence of SEQ ID NO: 24) were coated on 96-well micro plates at 2 μg/mL in coating buffer (carbonate/bicarbonate buffer) and incubated overnight at 4° C. The next day, the plates were washed once with wash buffer (PBS+0.05% v/v Tween-20, PBST), and then blocked with 5% w/v non-fatty milk in PBST for 2 hours at 37° C. The plates were then washed 4 times using wash buffer.
Serially diluted recombinant fusion proteins of the disclosure or controls (starting at 100 nM with a 5-fold serial dilution) were mixed with 20 ng/ml biotin-labeled human CD47-Fc (Biosion in house made, SEQ ID NO: 23) in PBST with 2.5% w/v non-fatty milk. The mixtures were incubated at 37° C. for 40 minutes, and respectively added to the CD172a-Fc bound plates, 100 μl per well. The plates were incubated at 37° C. for 40 minutes, washed 4 times using wash buffer, added with 100 μl/well streptavidin conjugated HRP (1:10000 dilution in PBST buffer, Cat #: 016-030-084, Jackson ImmunoResearch), incubated for 40 minutes at 37° C., and washed again using wash buffer. […] The plates were read on a microplate reader using the dual wavelength mode with 450 nm for TMB and 630 nm as the reference wavelength, and the OD (450-630) values were plotted against the recombinant fusion protein or controls concentration. Data was analyzed using Graphpad Prism and IC₅₀ values were reported. Wild-type SIRPαV2D1-Fc (IgG2) (SEQ ID NO: 21, X1=V, X2=K, X3=S, X4=K, X5=F) was used as a positive control.

[3] = target: T2, cynomolgus CD47-his protein (Cat #: CD7-C52H1, Acro biosystems) (cynomolgus, UniProt A0A2K5X523 19-139); experiment: SPR (Biacore T200), sample on Protein A chip, antigen-his analyte, 1:1 fit
T2 construct: Bought protein; also called Cyno CD47-his
From the text: (§1) The purified recombinant fusion proteins were characterized for their binding affinity and binding kinetics by Biacore T200 system (GE healthcare, Pittsburgh, PA, USA). The anti-CD40 antibody HuCD40-C1H1-V2 (having the heavy chain and the light chain of SEQ ID NOs: 19 and 20), Selicrelumab (an agonistic anti-CD40 antibody, Roche Inc., prepared in-house with heavy and light chains of SEQ ID NOs: 27 and 28), and SIRPα-Fc fusion proteins, including SIRPαV2D1M1-Fc (IgG2) (SEQ ID NO: 21, X1=I, X2=R, X3=T, X4=K, X5=F), SIRPαV2D1M2-Fc (IgG2) (SEQ ID NO: 21, X1=I, X2=R, X3=T, X4=R, X5=V), SIRPα-isoform2-Fc (SEQ ID NO: 25) were used as positive controls.
(§2) A Protein A chip (Cat #: 29-1275-56, GE healthcare) was used for affinity determination. The recombinant fusion proteins of the disclosure and the positive controls each at the concentration of 2 μg/ml were respectively flowed onto the chip at a flow rate of 10 μl/min. Then, serially diluted recombinant human CD40-his proteins (Cat #: CD0-H5228, Acro biosystems), human CD47-his proteins (Cat #: CD7-H5227, Acro biosystems), cynomolgus CD40-his proteins (Biosion in house made, SEQ ID NO: 29) or cynomolgus CD47-his proteins (Cat #: CD7-C52H1, Acro biosystems), 2-fold dilution in HBS-EP⁺ buffer (provided by Biacore) with a starting concentration of 200 nM, were flowed onto the chip at a flow rate of 30 μl/min. The association kinetics was followed for 2 minutes and the dissociation kinetics was followed for 10 minutes. The association and dissociation curves were fit to a 1:1 Langmuir binding model using the Biacore evaluation software.

[4] = target: T3, cynomolgus CD40-his protein (Biosion in house made) (cynomolgus, UniProt P25942 21-191 (human entry), limits assumed); experiment: as above
T3 construct: also called Cyno CD40-his
T3 chain: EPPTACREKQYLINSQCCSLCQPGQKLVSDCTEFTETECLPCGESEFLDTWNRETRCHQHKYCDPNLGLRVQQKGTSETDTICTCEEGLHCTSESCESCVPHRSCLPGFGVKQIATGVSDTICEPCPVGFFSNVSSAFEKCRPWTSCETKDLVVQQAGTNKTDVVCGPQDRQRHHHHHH
From the text: as §1, §2

[5] = target: T4, recombinant human CD40-his protein (Cat #: CD0-H5228, Acro biosystems) (human, UniProt P25942 21-193); experiment: as above
T4 construct: Bought protein
From the text: as §1, §2

[6] = target: T5, human CD47-his protein (Cat #: CD7-H5227, Acro biosystems) (human, UniProt Q08722 19-139); experiment: as above
T5 construct: Bought protein
T5 sequence (Q08722 19-139 limits assumed): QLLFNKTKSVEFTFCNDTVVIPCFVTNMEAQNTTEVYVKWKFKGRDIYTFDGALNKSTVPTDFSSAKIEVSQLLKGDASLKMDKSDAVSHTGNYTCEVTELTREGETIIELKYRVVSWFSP
From the text: as §1, §2

Row | Binder | EC50 [1] [nM] | IC50 [2] [nM] | Kd [3] [nM] | koff [3] [s⁻¹] | kon [3] [M⁻¹ s⁻¹] | Kd [4] [nM] | koff [4] [s⁻¹] | kon [4] [M⁻¹ s⁻¹] | Kd [5] [nM] | koff [5] [s⁻¹] | kon [5] [M⁻¹ s⁻¹] | Kd [6] [nM] | koff [6] [s⁻¹] | kon [6] [M⁻¹ s⁻¹]
1 | B1 | 0.213 | 2.74 | 6.08 | 0.000576 | 94800 | 2.16 | 0.00163 | 753000 | 0.937 | 0.00164 | 1.75e+06 | 0.987 | 0.000586 | 594000
2 | B2 | 0.197 | 2.5 | 5.39 | 0.000495 | 91800 | 2.2 | 0.00167 | 759000 | 0.935 | 0.00165 | 1.77e+06 | 1.15 | 0.000598 | 518000
